Reference: the Human Domainome abundance scans (Beltran et al. 2025)
± gives the uncertainty stated by the source.

B1: POU domain, class 3, transcription factor 1, residues 247 to 324; numbered along this chain, Q03052 (parent)
chain: EDAPSSDDLEQFAKQFKQRRIKLGFTQADVGLALGTLYGNVFSQTTICRFEALQLSFKNMCKLKPLLNKWLEETDSSS

Variants of: B1
Assay: abundance fitness (aPCA) (normalised: wild type 0, dead -1); higher = more abundant; growth selection in yeast, the domain comes from the species named
Settings: Homo sapiens
For EDAPSSDDLEQFAKQFKQRIIKLGFTQADVGLALGTLYGNVFSQTTICRFEALQLSFKNMCKLKPLLNKWLEETDSSS [R20I], the abundance fitness was -0.971 ± 0.44. With EDAPSSDDLEQFAKQFKQRRIKLGFTQADVGLALGTLYGNVFSQTTICRFEALQLSFKNMCKLKPLLNKWLEETDASS [S76A] the abundance fitness was -0.096 ± 0.062. Variant EDAPSSDDLEQFAKQFKQRRIKLGQTQADVGLALGTLYGNVFSQTTICRFEALQLSFKNMCKLKPLLNKWLEETDSSS [F25Q] has an abundance fitness of -0.511 ± 0.14. EDAPSSDDLEQFAKQFKQRRIKLGFTQADVGLALGTLYGNVFSQTTICRPEALQLSFKNMCKLKPLLNKWLEETDSSS [F50P] gave an abundance fitness of -0.484 ± 0.14. For EDAPSSDDLEQFAKQFKQRRIKLGFTQADVGRALGTLYGNVFSQTTICRFEALQLSFKNMCKLKPLLNKWLEETDSSS [L32R], the abundance fitness was 0.122 ± 0.041. Work on EDAPSSDDLEQFAKQFKQRRIKLGFTQADVGLALGTLYGNVFSQTTICRFEALQLSFKNMCKLKPLLNEWLEETDSSS [K69E] yielded an abundance fitness of -0.342 ± 0.072. In the case of EDAPSSDDLEQFAKQFKQRRIKLGFTQADVGLALGTLYGNVFSQTTICRFEALQLSFKNMCKLKPLLNKWLEETDSGS [S77G], the abundance fitness is reported as 0.159 ± 0.036. In the case of EDAPSSDDLEQFAKQFKQRRIKLQFTQADVGLALGTLYGNVFSQTTICRFEALQLSFKNMCKLKPLLNKWLEETDSSS [G24Q], the abundance fitness is reported as -0.796 ± 0.19. EDAPSSDDLEQFAKQFKERRIKLGFTQADVGLALGTLYGNVFSQTTICRFEALQLSFKNMCKLKPLLNKWLEETDSSS [Q18E] showed an abundance fitness of 0.028 ± 0.068. Variant EDAPSSDDLEQFAKQFKQRRIKLDFTQADVGLALGTLYGNVFSQTTICRFEALQLSFKNMCKLKPLLNKWLEETDSSS [G24D] has an abundance fitness of -0.7 ± 0.39. Work on EDAPSSDDLEQFAKQFKQRRIKLGFTQADVGLALGTLYGNVFSQTTICRFEALQLSFKNMCKLKPLLNKWLEEYDSSS [T74Y] yielded an abundance fitness of -0.156 ± 0.19. With EDAPSSDDLEQFAKQFKQRRIKLGFTQADVGLALGTLYGNVFSQTTICRFEALQLSFKNMCKLKPLLNKWLQETDSSS [E72Q] the abundance fitness was -0.143 ± 0.073. EDAPSSDDLEQFAKQFKQRRILLGFTQADVGLALGTLYGNVFSQTTICRFEALQLSFKNMCKLKPLLNKWLEETDSSS [K22L] showed an abundance fitness of -0.128 ± 0.066. With EDAPSSDDLEQFAKQFKQRRIKLGFTQADVGLALGTLYGNVFHQTTICRFEALQLSFKNMCKLKPLLNKWLEETDSSS [S43H] the abundance fitness was -0.108 ± 0.14. For EDAPSSDDLEQFAKQFKQRRIKLGNTQADVGLALGTLYGNVFSQTTICRFEALQLSFKNMCKLKPLLNKWLEETDSSS [F25N], the abundance fitness was -0.531 ± 0.24. For EDAPSSDDLEQFAKQFKQRRIKLGFTQADVGMALGTLYGNVFSQTTICRFEALQLSFKNMCKLKPLLNKWLEETDSSS [L32M], the abundance fitness was -0.039 ± 0.074. EDAPSSDDLEQFAKQFKQRRIKLGFTQADVGLALGTLYGNVFSQTTICRFEALQLSFKNMCKLKPLFNKWLEETDSSS [L67F] gave an abundance fitness of -0.698 ± 0.18. EDAPSSDDLEQFAKQFKQRRIKLGFTQADVGLALGTLAGNVFSQTTICRFEALQLSFKNMCKLKPLLNKWLEETDSSS [Y38A] gave an abundance fitness of -0.153 ± 0.072. In the case of EDAPSSDDLEQFAKQFKQRRIKLGFTQADVGLALGTLYGNVFSQTTICRFEALQLSFKNMCKLKPLLNKWPEETDSSS [L71P], the abundance fitness is reported as -1.1 ± 0.27. In the case of EDAPSSDDLEQFAKQFKQRRIKLGFTQADVGLALGTLYGNVFNQTTICRFEALQLSFKNMCKLKPLLNKWLEETDSSS [S43N], the abundance fitness is reported as 0.045 ± 0.091. In the case of EDAPSSDDLEQFAKQFKQRRIKLGFTQADVGLALGTLYGNVFSQTTICRFEALQLSFKNMCKLKPLLNKWLEETISSS [D75I], the abundance fitness is reported as -0.038 ± 0.15. Work on EDAPSSDDLEQFAKQFKQRRIKLGFTQADVGLALGTLYGNVFSQTPICRFEALQLSFKNMCKLKPLLNKWLEETDSSS [T46P] yielded an abundance fitness of -0.533 ± 0.25. For EDAPSSDMLEQFAKQFKQRRIKLGFTQADVGLALGTLYGNVFSQTTICRFEALQLSFKNMCKLKPLLNKWLEETDSSS [D8M], the abundance fitness was 0.014 ± 0.14. Variant EDAPSSDDLEQFAKQFKQRRIKLGFTQADEGLALGTLYGNVFSQTTICRFEALQLSFKNMCKLKPLLNKWLEETDSSS [V30E] has an abundance fitness of -0.601 ± 0.18. For EDAPSSDDLEQFAKQFKQRRIKLGFTQADVGLALGTLYGNVFSQTTICRFEALQLSFKNMCKLKPLCNKWLEETDSSS [L67C], the abundance fitness was -0.427 ± 0.12. EDAPSSDDLEQFAKQFKQRRIKLGFTQADVGLALGTLYGNVFSQTTICRAEALQLSFKNMCKLKPLLNKWLEETDSSS [F50A] gave an abundance fitness of -0.826 ± 0.12. For EDAPSSDDLEQFAKQFKQRRIKLGFTQADVGLALGTLYGNVFSQTTICRFEALQLSFKNMCKLKPALNKWLEETDSSS [L66A], the abundance fitness was -0.226 ± 0.063. In the case of EDAPSSDDLEQFAKQFKQRAIKLGFTQADVGLALGTLYGNVFSQTTICRFEALQLSFKNMCKLKPLLNKWLEETDSSS [R20A], the abundance fitness is reported as -0.653 ± 0.13. In the case of EDAPSSDDLEQFAKQFKQRRIKLGFTQADVGLALGTLYGNSFSQTTICRFEALQLSFKNMCKLKPLLNKWLEETDSSS [V41S], the abundance fitness is reported as 0.05 ± 0.054. EDAPSSDDLEQFAKQFKQRRLKLGFTQADVGLALGTLYGNVFSQTTICRFEALQLSFKNMCKLKPLLNKWLEETDSSS [I21L] gave an abundance fitness of -0.184 ± 0.061. With EDAPSSDDLEQFAKQFKQRRIKLKFTQADVGLALGTLYGNVFSQTTICRFEALQLSFKNMCKLKPLLNKWLEETDSSS [G24K] the abundance fitness was -0.423 ± 0.15. With EDAPSSDDLEQFAKQFKQRRIKLGFTQADVGLALGTLYGNVFSQTTIIRFEALQLSFKNMCKLKPLLNKWLEETDSSS [C48I] the abundance fitness was 0.094 ± 0.11. EDAPSSDDLEQFAKQFKQRRIKLGFTQADVGLALGTLYGNVFSQTTICRFEALQLSFKNMCKLKPLLNKWLEETDSST [S78T] gave an abundance fitness of 0.087 ± 0.11. Variant EDAPSSDDLEQFAKQFKQRRIKLGFTQADVGLALGDLYGNVFSQTTICRFEALQLSFKNMCKLKPLLNKWLEETDSSS [T36D] has an abundance fitness of 0.112 ± 0.092. With EDAPSSDDLEQFAKQFKQRRIKLGFTQADVGLALGTLYGNVFSQTTICRFEALQLSFKGMCKLKPLLNKWLEETDSSS [N59G] the abundance fitness was -0.04 ± 0.04.
